Results published in PMC2749851, “Interaction of ZEB and Histone Deacetylase with the PLDLS-binding cleft region of monomeric C-terminal Binding Protein 2” (BMC Molecular Biology, 2009).

Biological target: T1, H6-CtBP2 (UniProt P56545 1-445)
T1 construct: also called H6-tagged wt CtBP2; wt CtBP2; source: purified
Experiment: pull-down; GST fusion proteins charged on glutathione-agarose beads, incubated with purified H6-CtBP2 or H6-RR-CtBP2 (~0.1 μg) in 200 μl of 25 mM Tris-HCl pH 7.5, 0.25 M NaCl, 0.5% Triton X-100, 0.5 mM DTT for 1 h at 4°C; Western blot with the CtBP2 antibody
Details: both partners purified

B1: GST-ZEB101 (domain or fragment, UniProt P37275-1 680-780, looked up)
chain: PLKMTNSPVLPVGSTTNGSRSSTPSPSPLNLSSSRNTQGYLYTAEGAQEEPQVEPLDLSLPKQQGELLERSTITSVYQNSVYSVQEEPLNLSCAKKEPQKD
notes: ZEB (ZEB1), GenBank NM_030751, aa 680-780; transferred from pGFP-ZEB101 to a pGST vector at XhoI/EcoRI; also called wt ZEB101; source: induced with 1 mM IPTG; lysate loaded onto glutathione-agarose beads
B1: binds.
